This note sets out measurements from publication PMC11182016, “Molecular basis of human poly(A) polymerase recruitment by mPSF” (RNA, 2024).

Holding throughout (conditions): both partners purified
In test [1] the target is T1, PAPOA structured core (His8-3C-PAPOA residues 1–513-FLAG), wild type (human, UniProt P51003 1-513).
T1 construct: A 3C site lies between His8 and PAPOA; no cleavage step is described in the purification; also called PAPOA core; PAPOA_(1–513); source: E. coli BL21 STAR (DE3) pRARE, purified (Talon, HiTrap Heparin, Superdex 200); not shown: FLAG, C-terminal, kept
Kind of test: pull-down; FLAG pull-down on α-FLAG M2 Protein G Dynabeads; FLAG-tagged PAPOA core 2.5 µM as bait, FIP1 25 µM (10× excess); 20 mM HEPES-NaOH pH 7.5, 150 mM NaCl, 5 mM MgCl2, 0.01% NP-40 substitute, 4°C; Coomassie-stained SDS-PAGE.

Test [2] addresses T2, CPSF160–WDR33 (CPSF160 coexpressed with TwinStrep3C-WDR33 residues 1–413-FLAG) (human, UniProt Q10570 1-1443; Q9C0J8 1-413).
T2 construct: human CPSF160 (mPSF subunit); human WDR33 (mPSF subunit), residues 1-413; A 3C site follows the TwinStrep tag; no cleavage step is described; also called FLAG-tagged WDR33; source: Sf9, baculovirus coexpression, purified (StrepTactin XT, MonoQ, Superdex 200); not shown: FLAG, C-terminal, kept
Kind of test: pull-down; FLAG pull-down on α-FLAG M2 Protein G Dynabeads; FLAG-tagged WDR33 (CPSF160–WDR33) 1.5 µM as bait, PAPOAC 15 µM; 20 mM HEPES-NaOH pH 7.5, 150 mM NaCl, 0.01% NP-40 substitute, no MgCl2, 4°C; Coomassie-stained SDS-PAGE.

Test [3] addresses T1, PAPOA structured core (His8-3C-PAPOA …). Kind of test: pull-down; FLAG pull-down on α-FLAG M2 Protein G Dynabeads; FLAG-tagged PAPOA core 2.5 µM as bait, PAPOAC 100 µM (40× excess); 20 mM HEPES-NaOH pH 7.5, 50 mM NaCl, 5 mM MgCl2, 0.01% NP-40 substitute, 4°C; Coomassie-stained SDS-PAGE.

T1 sequence (P51003 1-513): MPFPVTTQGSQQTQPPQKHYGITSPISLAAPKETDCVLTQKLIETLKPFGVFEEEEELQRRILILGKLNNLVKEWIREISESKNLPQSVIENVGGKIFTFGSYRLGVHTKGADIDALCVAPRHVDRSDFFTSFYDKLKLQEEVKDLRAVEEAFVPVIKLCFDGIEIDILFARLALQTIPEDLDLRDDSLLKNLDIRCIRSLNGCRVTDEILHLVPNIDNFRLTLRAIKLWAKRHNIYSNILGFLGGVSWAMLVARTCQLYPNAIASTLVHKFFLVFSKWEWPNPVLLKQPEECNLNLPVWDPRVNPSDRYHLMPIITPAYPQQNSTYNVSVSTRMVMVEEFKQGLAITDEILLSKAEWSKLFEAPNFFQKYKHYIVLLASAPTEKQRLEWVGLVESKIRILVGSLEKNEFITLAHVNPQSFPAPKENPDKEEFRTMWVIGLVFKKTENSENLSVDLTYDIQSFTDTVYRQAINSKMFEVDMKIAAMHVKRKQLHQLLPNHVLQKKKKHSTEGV
T2 sequence (Q10570 whole entry, chain 1 of 2, the tested form may be a part): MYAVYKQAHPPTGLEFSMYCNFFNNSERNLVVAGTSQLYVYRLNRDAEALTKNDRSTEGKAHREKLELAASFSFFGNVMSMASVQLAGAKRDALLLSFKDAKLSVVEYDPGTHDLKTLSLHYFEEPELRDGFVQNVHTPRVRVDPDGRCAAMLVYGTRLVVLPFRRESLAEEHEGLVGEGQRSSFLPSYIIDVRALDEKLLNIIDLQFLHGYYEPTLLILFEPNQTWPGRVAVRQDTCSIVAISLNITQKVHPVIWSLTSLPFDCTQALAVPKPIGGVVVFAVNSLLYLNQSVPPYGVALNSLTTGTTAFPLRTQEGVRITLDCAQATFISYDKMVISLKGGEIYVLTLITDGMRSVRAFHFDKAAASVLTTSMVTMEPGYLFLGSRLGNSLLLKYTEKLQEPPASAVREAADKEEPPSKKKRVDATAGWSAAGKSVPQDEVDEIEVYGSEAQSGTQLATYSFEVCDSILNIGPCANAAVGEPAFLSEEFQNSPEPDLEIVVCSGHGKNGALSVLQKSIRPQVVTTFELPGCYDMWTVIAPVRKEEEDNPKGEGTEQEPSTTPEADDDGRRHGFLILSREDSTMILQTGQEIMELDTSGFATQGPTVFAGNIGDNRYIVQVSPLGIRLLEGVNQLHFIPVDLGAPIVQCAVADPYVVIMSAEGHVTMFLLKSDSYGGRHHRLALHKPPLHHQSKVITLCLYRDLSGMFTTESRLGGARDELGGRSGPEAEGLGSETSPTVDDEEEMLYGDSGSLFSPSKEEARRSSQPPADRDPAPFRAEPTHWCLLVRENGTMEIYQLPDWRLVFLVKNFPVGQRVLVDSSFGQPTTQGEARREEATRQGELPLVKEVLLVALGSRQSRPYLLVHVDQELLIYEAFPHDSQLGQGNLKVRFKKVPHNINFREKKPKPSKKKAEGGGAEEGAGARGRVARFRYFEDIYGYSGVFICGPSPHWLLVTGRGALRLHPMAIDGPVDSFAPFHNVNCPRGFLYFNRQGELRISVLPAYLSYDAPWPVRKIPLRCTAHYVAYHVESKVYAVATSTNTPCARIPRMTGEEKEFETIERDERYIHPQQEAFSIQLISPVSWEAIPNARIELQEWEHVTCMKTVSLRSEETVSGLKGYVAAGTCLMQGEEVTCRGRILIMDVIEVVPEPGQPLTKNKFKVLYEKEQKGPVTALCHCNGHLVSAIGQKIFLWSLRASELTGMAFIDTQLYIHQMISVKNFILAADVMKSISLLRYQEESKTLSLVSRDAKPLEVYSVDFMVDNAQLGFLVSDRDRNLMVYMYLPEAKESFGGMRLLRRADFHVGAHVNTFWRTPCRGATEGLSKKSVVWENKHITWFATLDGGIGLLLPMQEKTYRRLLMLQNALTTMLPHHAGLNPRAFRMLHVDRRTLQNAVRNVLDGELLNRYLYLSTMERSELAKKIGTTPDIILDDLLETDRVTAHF
T2 sequence (Q9C0J8 1-413, chain 2 of 2): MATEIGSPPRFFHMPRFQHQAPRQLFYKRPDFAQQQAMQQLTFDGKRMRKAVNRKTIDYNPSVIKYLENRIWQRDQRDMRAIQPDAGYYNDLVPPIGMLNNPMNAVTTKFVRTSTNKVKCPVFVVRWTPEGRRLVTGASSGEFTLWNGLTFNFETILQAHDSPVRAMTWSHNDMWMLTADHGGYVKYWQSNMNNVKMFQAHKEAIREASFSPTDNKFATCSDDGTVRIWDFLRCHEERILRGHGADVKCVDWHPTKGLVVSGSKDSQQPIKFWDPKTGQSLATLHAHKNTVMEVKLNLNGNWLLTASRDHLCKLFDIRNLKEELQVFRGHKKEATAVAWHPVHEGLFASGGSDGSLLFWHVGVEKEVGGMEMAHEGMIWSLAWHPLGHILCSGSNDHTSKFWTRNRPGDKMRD

B1: minimal FIP1 construct (His6-MBP-3C-FIP1 residues 80–113), wild type (peptide, UniProt Q6UN15 80-113, looked up)
chain: ETEDDSDSDSDDDEDDVHVTIGDIKTGAPQYGSY
notes: A 3C site follows MBP; no cleavage step is described in the purification; also called minimal FIP1 peptide; source: E. coli BL21 STAR (DE3) pRARE, purified (Amylose resin, Superdex 200)
As for B1, the binding result in test [1] is “binds”.

B2: minimal PAPOAC construct (His6-MBP-3C-PAPOA residues 720–745), wild type (peptide)
chain: DLSDIPALPANPIPVIKNSIKLRLNR
notes: human poly(A) polymerase alpha (PAPOA), C-terminal motif, residues 720-745; A 3C site follows MBP; no cleavage step is described in the purification; also called PAPOA C terminus; PAPOAC peptide; source: E. coli BL21 STAR (DE3) pRARE, purified (Amylose resin, Superdex 200)
With B2, the binding result in test [2] and in test [3] was “binds” throughout.
